The values that follow come from paper PMC2958812, “Evidence for a Xer/dif System for Chromosome Resolution in Archaea”.

The target of series [1] is T1, XerA (Pab0255) (Pyrococcus abyssi, UniProt Q9V1P5 1-286).
T1 sequence: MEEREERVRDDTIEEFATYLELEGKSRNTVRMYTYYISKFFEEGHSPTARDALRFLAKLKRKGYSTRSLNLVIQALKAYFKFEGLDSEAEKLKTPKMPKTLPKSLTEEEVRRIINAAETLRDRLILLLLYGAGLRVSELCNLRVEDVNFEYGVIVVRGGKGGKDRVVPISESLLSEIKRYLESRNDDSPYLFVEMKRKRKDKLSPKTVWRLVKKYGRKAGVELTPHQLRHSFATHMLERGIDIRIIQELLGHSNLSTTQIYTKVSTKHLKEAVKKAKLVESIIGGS
Put plainly: EMSA; 20 C; 0.5 ug poly(dIdC); EMSA: 0.5 uM labeled DNA, 50 mM Tris pH 7.5, 30 mM NaCl, 0.5 ug poly(dIdC).poly(dIdC), 20 ul, 30 min at 20 or 65 C; native PAGE in TGE at 4 C. As to conditions: protein: recombinant; tags: N-terminal His6 (MHHHHHH, from forward primer); label: 5'-32P on top strand; blunt.

The target of series [2] is T1, XerA (Pab0255). Put plainly: EMSA; 65 C; 0.5 ug poly(dIdC); EMSA: 0.5 uM labeled DNA, 50 mM Tris pH 7.5, 30 mM NaCl, 0.5 ug poly(dIdC).poly(dIdC), 20 ul, 30 min at 20 or 65 C; native PAGE in TGE at 4 C. The settings on record: protein: recombinant; tags: N-terminal His6 (MHHHHHH, from forward primer); label: 5'-32P on top strand; blunt.

B1: dif-Pab (dsDNA)
DNA 1: GTTAACTATATTGGATATAATCGGCCTTATATCTAAAGTGTTG
DNA 2: CAACACTTTAGATATAAGGCCGATTATATCCAATATAGTTAAC
B1: the binding signal in series [1] was 4 fold complex formation vs attP; in series [2], 8 fold complex formation vs attP.

B2: attP (SSV1 minimal) (dsDNA)
DNA 1: GTTAACTATCTTTTCCGCCTCCGGAGCCGGAGGTCCCGTGTTG
DNA 2: CAACACGGGACCTCCGGCTCCGGAGGCGGAAAAGATAGTTAAC
Turning to B2, the binding signal in series [1] is 0.25 complex formation relative to dif-Pab (4 fold less); in series [2] it was 0.125 complex formation relative to dif-Pab (8 fold less).
